Results on 7 molecules are retold here after US12630600B2 (MEDIMMUNE LIMITED, priority 2022, dated 2026).

To fix the notation:
B1: Peptide 525 (peptide)
peptide: H[Aib]QGTFTSDVSK[αMeF]LDSERAK([AEEA-AEEA-γGlu-C18 diacid])DFVQWLEA[Aib]G-OH
modifications: N-terminus assumed
SMILES: CC(C)C[C@H](NC(=O)[C@H](Cc1c[nH]c2ccccc12)NC(=O)[C@H](CCC(N)=O)NC(=O)[C@@H](NC(=O)[C@H](Cc1ccccc1)NC(=O)[C@H](CC(=O)O)NC(=O)[C@H](CCCCNC(=O)COCCOCCNC(=O)COCCOCCNC(=O)CC[C@H](NC(=O)CCCCCCCCCCCCCCCCC(=O)O)C(=O)O)NC(=O)[C@H](C)NC(=O)[C@H](CCCNC(=N)N)NC(=O)[C@H](CCC(=O)O)NC(=O)[C@H](CO)NC(=O)[C@H](CC(=O)O)NC(=O)[C@H](CC(C)C)NC(=O)[C@](C)(Cc1ccccc1)NC(=O)[C@H](CCCCN)NC(=O)[C@H](CO)NC(=O)[C@@H](NC(=O)[C@H](CC(=O)O)NC(=O)[C@H](CO)NC(=O)[C@@H](NC(=O)[C@H](Cc1ccccc1)NC(=O)[C@@H](NC(=O)CNC(=O)[C@H](CCC(N)=O)NC(=O)C(C)(C)NC(=O)[C@@H](N)Cc1c[nH]cn1)[C@@H](C)O)[C@@H](C)O)C(C)C)C(C)C)C(=O)N[C@@H](CCC(=O)O)C(=O)N[C@@H](C)C(=O)NC(C)(C)C(=O)NCC(=O)O
B2: Peptide 526 (peptide)
peptide: H[Aib]QGTFTSDVSK[αMeF]LDSERAK([AEEA-AEEA-γGlu-C18 diacid])DFVAWLEA[Aib]G-OH
modifications: N-terminus assumed
SMILES: CC(C)C[C@H](NC(=O)[C@H](Cc1c[nH]c2ccccc12)NC(=O)[C@H](C)NC(=O)[C@@H](NC(=O)[C@H](Cc1ccccc1)NC(=O)[C@H](CC(=O)O)NC(=O)[C@H](CCCCNC(=O)COCCOCCNC(=O)COCCOCCNC(=O)CC[C@H](NC(=O)CCCCCCCCCCCCCCCCC(=O)O)C(=O)O)NC(=O)[C@H](C)NC(=O)[C@H](CCCNC(=N)N)NC(=O)[C@H](CCC(=O)O)NC(=O)[C@H](CO)NC(=O)[C@H](CC(=O)O)NC(=O)[C@H](CC(C)C)NC(=O)[C@](C)(Cc1ccccc1)NC(=O)[C@H](CCCCN)NC(=O)[C@H](CO)NC(=O)[C@@H](NC(=O)[C@H](CC(=O)O)NC(=O)[C@H](CO)NC(=O)[C@@H](NC(=O)[C@H](Cc1ccccc1)NC(=O)[C@@H](NC(=O)CNC(=O)[C@H](CCC(N)=O)NC(=O)C(C)(C)NC(=O)[C@@H](N)Cc1c[nH]cn1)[C@@H](C)O)[C@@H](C)O)C(C)C)C(C)C)C(=O)N[C@@H](CCC(=O)O)C(=O)N[C@@H](C)C(=O)NC(C)(C)C(=O)NCC(=O)O
B3: Peptide 522 (peptide)
peptide: H[Aib]QGTFTSDVSK[αMeF]LDSERAK([AEEA-AEEA-γGlu-C18 diacid])DFVAWLEAGG-OH
modifications: N-terminus assumed
SMILES: CC(C)C[C@H](NC(=O)[C@H](Cc1c[nH]c2ccccc12)NC(=O)[C@H](C)NC(=O)[C@@H](NC(=O)[C@H](Cc1ccccc1)NC(=O)[C@H](CC(=O)O)NC(=O)[C@H](CCCCNC(=O)COCCOCCNC(=O)COCCOCCNC(=O)CC[C@H](NC(=O)CCCCCCCCCCCCCCCCC(=O)O)C(=O)O)NC(=O)[C@H](C)NC(=O)[C@H](CCCNC(=N)N)NC(=O)[C@H](CCC(=O)O)NC(=O)[C@H](CO)NC(=O)[C@H](CC(=O)O)NC(=O)[C@H](CC(C)C)NC(=O)[C@](C)(Cc1ccccc1)NC(=O)[C@H](CCCCN)NC(=O)[C@H](CO)NC(=O)[C@@H](NC(=O)[C@H](CC(=O)O)NC(=O)[C@H](CO)NC(=O)[C@@H](NC(=O)[C@H](Cc1ccccc1)NC(=O)[C@@H](NC(=O)CNC(=O)[C@H](CCC(N)=O)NC(=O)C(C)(C)NC(=O)[C@@H](N)Cc1c[nH]cn1)[C@@H](C)O)[C@@H](C)O)C(C)C)C(C)C)C(=O)N[C@@H](CCC(=O)O)C(=O)N[C@@H](C)C(=O)NCC(=O)NCC(=O)O
B4: Peptide 524 (peptide)
peptide: H[Aib]QGTFTSDVSE[αMeF]LDSERAK([AEEA-AEEA-γGlu-C18 diacid])DFVRWLEAGG-OH
modifications: N-terminus assumed
SMILES: CC(C)C[C@H](NC(=O)[C@H](Cc1c[nH]c2ccccc12)NC(=O)[C@H](CCCNC(=N)N)NC(=O)[C@@H](NC(=O)[C@H](Cc1ccccc1)NC(=O)[C@H](CC(=O)O)NC(=O)[C@H](CCCCNC(=O)COCCOCCNC(=O)COCCOCCNC(=O)CC[C@H](NC(=O)CCCCCCCCCCCCCCCCC(=O)O)C(=O)O)NC(=O)[C@H](C)NC(=O)[C@H](CCCNC(=N)N)NC(=O)[C@H](CCC(=O)O)NC(=O)[C@H](CO)NC(=O)[C@H](CC(=O)O)NC(=O)[C@H](CC(C)C)NC(=O)[C@](C)(Cc1ccccc1)NC(=O)[C@H](CCC(=O)O)NC(=O)[C@H](CO)NC(=O)[C@@H](NC(=O)[C@H](CC(=O)O)NC(=O)[C@H](CO)NC(=O)[C@@H](NC(=O)[C@H](Cc1ccccc1)NC(=O)[C@@H](NC(=O)CNC(=O)[C@H](CCC(N)=O)NC(=O)C(C)(C)NC(=O)[C@@H](N)Cc1c[nH]cn1)[C@@H](C)O)[C@@H](C)O)C(C)C)C(C)C)C(=O)N[C@@H](CCC(=O)O)C(=O)N[C@@H](C)C(=O)NCC(=O)NCC(=O)O
B5: Peptide 523 (peptide)
peptide: H[Aib]QGTFTSDVSK[αMeF]LDSERAK([AEEA-AEEA-γGlu-C20 diacid])DFVAWLEAGG-OH
modifications: N-terminus assumed
SMILES: CC(C)C[C@H](NC(=O)[C@H](Cc1c[nH]c2ccccc12)NC(=O)[C@H](C)NC(=O)[C@@H](NC(=O)[C@H](Cc1ccccc1)NC(=O)[C@H](CC(=O)O)NC(=O)[C@H](CCCCNC(=O)COCCOCCNC(=O)COCCOCCNC(=O)CC[C@H](NC(=O)CCCCCCCCCCCCCCCCCCC(=O)O)C(=O)O)NC(=O)[C@H](C)NC(=O)[C@H](CCCNC(=N)N)NC(=O)[C@H](CCC(=O)O)NC(=O)[C@H](CO)NC(=O)[C@H](CC(=O)O)NC(=O)[C@H](CC(C)C)NC(=O)[C@](C)(Cc1ccccc1)NC(=O)[C@H](CCCCN)NC(=O)[C@H](CO)NC(=O)[C@@H](NC(=O)[C@H](CC(=O)O)NC(=O)[C@H](CO)NC(=O)[C@@H](NC(=O)[C@H](Cc1ccccc1)NC(=O)[C@@H](NC(=O)CNC(=O)[C@H](CCC(N)=O)NC(=O)C(C)(C)NC(=O)[C@@H](N)Cc1c[nH]cn1)[C@@H](C)O)[C@@H](C)O)C(C)C)C(C)C)C(=O)N[C@@H](CCC(=O)O)C(=O)N[C@@H](C)C(=O)NCC(=O)NCC(=O)O

Starred links: 1 amine or outer side, 2 acyl side, 3 side chain; linkers in the order of their positions; H or OH if unused. Non-standard residues stand in square brackets, D forms with d. Residues, ends and D or L forms follow the SMILES beside them. Groups on a side chain read outwards from the residue. No end group written: not given here. *: point of attachment. C20 diacid = O=C(O)CCCCCCCCCCCCCCCCCCC(=O)*; C18 diacid = O=C(O)CCCCCCCCCCCCCCCCC(=O)*; γGlu = O=C(O)[C@H](CCC(=O)[*:2])N[*:1]; αMeF = C[C@](N)(Cc1ccccc1)C(=O)O; AEEA = NCCOCCOCC(=O)O; Aib = CC(C)(N)C(=O)O

T1 sequence (P43220 24-463): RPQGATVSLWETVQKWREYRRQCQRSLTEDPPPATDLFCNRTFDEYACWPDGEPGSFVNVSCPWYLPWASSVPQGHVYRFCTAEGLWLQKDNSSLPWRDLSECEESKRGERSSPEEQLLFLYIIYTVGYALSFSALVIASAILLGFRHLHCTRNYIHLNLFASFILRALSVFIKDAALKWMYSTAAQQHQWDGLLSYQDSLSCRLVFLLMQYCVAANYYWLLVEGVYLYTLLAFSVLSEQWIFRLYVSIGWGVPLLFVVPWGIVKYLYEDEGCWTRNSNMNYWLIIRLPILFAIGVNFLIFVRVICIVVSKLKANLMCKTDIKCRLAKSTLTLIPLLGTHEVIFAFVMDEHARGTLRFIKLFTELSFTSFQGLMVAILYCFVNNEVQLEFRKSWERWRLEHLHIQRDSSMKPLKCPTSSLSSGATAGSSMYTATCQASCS

One assay concerns the target T1, human GLP-1 receptor (hGLP-1R) (Homo sapiens, UniProt P43220).
T1 construct: expressed in transfected cells; host or cells: CHO
Briefly: cAMP production (HTRF) in CHO cells expressing human GLP-1 receptor. Conditions: Table 8; % GLP-1R activity relative to GLP-1 / % GlucR activity relative to glucagon. The class given is cell-based. As to the method: Cells were re-suspended in assay buffer at a batch-dependent optimized concentration (typically hGLP-1R cells at 1×10^5 cells/mL, hGCGR cells at 2×10^5 cells/mL).
Cells were added to the assay plate using a multidrop dispenser and incubated at room temperature for 30 minutes before measuring the cAMP level using a cAMP dynamic 2 homogeneous time resolved Fluorescence (HTRF) kit (Cisbio Bioassays #62AM4PEJ) following the two-step protocol as per manufacturer's recommendations. In brief, anti-cAMP cryptate (donor fluorophore) and cAMP-d2 (acceptor fluorophore) were made up separately by diluting each 1 in 20 in conjugate and lysis buffer provided in the kit. Anti-cAMP cryptate was added to all wells of the assay plate, followed by cAMP-d2 added to all wells except non-specific binding (NSB) wells (to which conjugate and lysis buffer was added).
Data was transformed to % Delta F as described in the manufacturer's guidelines and analyzed by 4-parameter logistic fit to determine EC50 values.
Background: Changes in cAMP serve as a functional read-out for many G protein-coupled receptors.
Turning to `CC[C@H](C)[C@H](NC(=O)[C@H](Cc1c[nH]c2ccccc12)NC(=O)[C@H](CCCCNC(=O)CC[C@H](NC(=O)CCCCCCCCCCCCCCCCCCC(=O)O)C(=O)O)NC(=O)[C@@H](NC(=O)[C@H](Cc1ccccc1)NC(=O)[C@H](CC(=O)O)NC(=O)[C@H](CCC(N)=O)NC(=O)[C@H](C)NC(=O)[C@H](C)NC(=O)[C@H](CCC(N)=O)NC(=O)[C@H](CO)NC(=O)[C@H](CC(=O)O)NC(=O)[C@H](CC(C)C)NC(=O)[C@](C)(Cc1ccccc1)NC(=O)[C@H](CCCCN)NC(=O)[C@H](CO)NC(=O)[C@@H](NC(=O)[C@H](CC(=O)O)NC(=O)[C@H](CO)NC(=O)[C@@H](NC(=O)[C@H](Cc1ccccc1)NC(=O)[C@@H](NC(=O)CNC(=O)[C@H](Cc1c[nH]cn1)NC(=O)C(C)(C)NC(=O)[C@@H](N)Cc1c[nH]cn1)[C@@H](C)O)[C@@H](C)O)C(C)C)C(C)C)C(=O)N[C@@H](C)C(=O)N[C@@H](CC(N)=O)C(=O)N[C@H](C(N)=O)[C@@H](C)O` [Peptide 347], the “% Relative Potency Ratio” value is listed as 0.2. The same measure, in the same setting: the figure for `CC[C@H](C)[C@H](NC(=O)C(C)(C)NC(=O)[C@H](CCCCNC(=O)COCCOCCNC(=O)COCCOCCNC(=O)CC[C@H](NC(=O)CC[C@H](NC(=O)CCCCCCCCCCCCCCCCC(=O)O)C(=O)O)C(=O)O)NC(=O)[C@@H](NC(=O)[C@](C)(Cc1ccccc1)NC(=O)[C@H](CC(=O)O)NC(=O)[C@H](CCC(N)=O)NC(=O)[C@H](C)NC(=O)[C@H](C)NC(=O)[C@H](CCCNC(=N)N)NC(=O)[C@H](CO)NC(=O)[C@H](CC(=O)O)NC(=O)[C@H](CC(C)C)NC(=O)[C@](C)(Cc1ccccc1)NC(=O)[C@H](CCCCN)NC(=O)[C@H](CO)NC(=O)[C@@H](NC(=O)[C@H](CC(=O)O)NC(=O)[C@H](CO)NC(=O)[C@@H](NC(=O)[C@](C)(Cc1ccccc1)NC(=O)[C@H](CO)NC(=O)CNC(=O)[C@H](Cc1c[nH]cn1)NC(=O)C(C)(C)NC(=O)[C@@H](N)Cc1c[nH]cn1)[C@@H](C)O)C(C)C)C(C)C)C(=O)N[C@@H](C)C(=O)N[C@@H](CC(N)=O)C(=O)N[C@H](C(=O)NCC(=O)NCC(N)=O)[C@@H](C)O` [Peptide 373] (H-H[Aib]HGS[αMeF]TSDVSK[αMeF]LDSRAAQD[αMeF]VK([AEEA-AEEA-γGlu-γGlu-C18 diacid])[Aib]IANTGG-NH2; N-terminus assumed) is 7.2.

A further assay addresses human glucagon receptor (human, UniProt P47871). Briefly: cell-based or functional assay.
Settings: not given
B1: the “hGluc-R EC50 (pM)” value was 2450 pM. Still for that read-out and setting: the figure for B2 is 690 pM.

Turning to B3, the “hGluc-R EC50 (pM)” value is 6360 pM.

Take B4: the “hGluc-R EC50 (pM)” value is > 24400 pM. The same measure, in the same setting: for B5 the value was > 24700 pM.

For a further assay, the target named is human GLP-1 receptor (human, UniProt P43220). The assay is described as follows: cell-based or functional assay.
Settings: not given
Turning to B1, the “hGLP-1R EC50 (pM)” value worked out at 177 pM. Still for that read-out and setting: for B2 the value was 194 pM.

On to B3, for which the “hGLP-1R EC50 (pM)” value came to 508 pM. Still for that read-out and setting: the figure for B4 is 366 pM.

Regarding B5, the “hGLP-1R EC50 (pM)” value is 615 pM.
